Measurements: paper PMC4684078

Biological target: mCherry-p62 delta PB1 (recombinant) (human)
Assay: SEC-MALS; size exclusion chromatography with static light scattering (Superdex 200 10/300, MiniDawn Treos); 25 mM HEPES pH 7.5, 500 mM NaCl, 1 mM DTT

Substance: mCherry-p62 delta PB1 (recombinant) (domain or fragment)
- stoichiometry N: 3
